Results taken from patent US20240043515A1 (Chugai, published 2024).

T1: human FcγRIIa R extracellular domain (human, UniProt P12318 34-217)
T1 construct: extracellular domain; also called hFcγR IIa R; FcγRIIa allotype R131
T1 sequence (looked up): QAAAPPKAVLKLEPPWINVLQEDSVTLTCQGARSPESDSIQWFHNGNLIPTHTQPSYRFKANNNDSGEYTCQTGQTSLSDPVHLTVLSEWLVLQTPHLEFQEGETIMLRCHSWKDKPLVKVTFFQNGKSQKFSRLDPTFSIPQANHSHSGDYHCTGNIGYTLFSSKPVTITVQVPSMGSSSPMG

T2: human FcγRIIb extracellular domain (human, UniProt P31994 43-217)
T2 construct: extracellular domain; also called hFcγR IIb
T2 sequence (looked up): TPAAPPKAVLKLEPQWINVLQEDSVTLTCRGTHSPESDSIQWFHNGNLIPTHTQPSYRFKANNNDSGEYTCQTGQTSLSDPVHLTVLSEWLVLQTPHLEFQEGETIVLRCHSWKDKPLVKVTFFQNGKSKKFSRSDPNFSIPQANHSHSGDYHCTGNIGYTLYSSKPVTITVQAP

T3: human FcγRIIa H extracellular domain (human, UniProt P12318 34-217)
T3 construct: extracellular domain; also called hFcγR IIa H; FcγRIIa allotype H131
T3 sequence (looked up): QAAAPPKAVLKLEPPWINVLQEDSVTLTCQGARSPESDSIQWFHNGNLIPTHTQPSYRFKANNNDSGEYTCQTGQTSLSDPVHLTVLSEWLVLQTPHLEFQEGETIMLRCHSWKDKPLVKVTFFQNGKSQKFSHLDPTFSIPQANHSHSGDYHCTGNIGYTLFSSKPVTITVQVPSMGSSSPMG

T4: hFcγRIIaH on Jurkat effector cells (human, UniProt P12318 34-317)
T4 sequence (looked up): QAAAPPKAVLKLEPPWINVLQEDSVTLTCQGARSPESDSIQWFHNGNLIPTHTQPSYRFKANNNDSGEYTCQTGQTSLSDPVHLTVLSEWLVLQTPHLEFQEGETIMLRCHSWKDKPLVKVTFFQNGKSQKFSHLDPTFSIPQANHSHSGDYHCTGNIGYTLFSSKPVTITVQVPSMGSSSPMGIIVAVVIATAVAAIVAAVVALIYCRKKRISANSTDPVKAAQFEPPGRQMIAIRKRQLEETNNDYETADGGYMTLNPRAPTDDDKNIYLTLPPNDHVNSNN


How the values were obtained:
[1] = molecular target: T1, human FcγRIIa R extracellular domain; experiment: SPR; KD of G1d divided by KD of this antibody
Experimental: (§1) The extracellular domains of FcγRs were produced by the method described in WO2014104165. The interaction between the produced antibodies and human FcγRs was analyzed using Biacore 8K+ by the method below. For the running buffer, 50 mM Na-Phosphate, 150 mM NaCl, and 0.05% Tween20 (pH 7.4) was used, and measurement was performed at 25° C. The sensor chip used was a Series S SA chip (GE Healthcare) onto which CaptureSelect Human Fab-kappa Kinetics Biotin Conjugate (Thermo Fisher Scientific) was immobilized. An antibody of interest was captured onto this chip, and each FcγR diluted with the running buffer was allowed to interact with it. The chip was regenerated using 10 mM Glycine-HCl (pH 1.5), and repeatedly used to capture antibodies and perform measurement. The dissociation constants KD (mol/L) of each antibody for FcγRs were calculated using Biacore Insight Evaluation Software, with a steady state affinity model for the dissociation constant for FcγRIIb and a 1:1 Langmuir binding model for the dissociation constants for the other FcγRs (Table 2).

[2] = molecular target: T2, human FcγRIIb extracellular domain; experiment: SPR; KD of G1d divided by KD of this antibody
Experimental: as §1

[3] = molecular target: T3, human FcγRIIa H extracellular domain; experiment: SPR; KD of G1d divided by KD of this antibody
Experimental: as §1

[4] = molecular target: T5, human FcγRIa extracellular domain (human, UniProt P12314 16-292); experiment: SPR; KD of G1d divided by KD of this antibody
T5 construct: extracellular domain; also called hFcγR Ia
T5 sequence (P12314 16-292): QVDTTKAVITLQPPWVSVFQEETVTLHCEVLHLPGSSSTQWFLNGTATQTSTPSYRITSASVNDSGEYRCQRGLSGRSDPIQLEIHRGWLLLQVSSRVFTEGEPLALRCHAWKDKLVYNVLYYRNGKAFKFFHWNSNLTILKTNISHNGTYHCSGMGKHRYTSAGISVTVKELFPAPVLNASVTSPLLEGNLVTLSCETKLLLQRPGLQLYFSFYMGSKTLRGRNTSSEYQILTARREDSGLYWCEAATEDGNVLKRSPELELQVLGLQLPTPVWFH
Experimental: as §1

[5] = molecular target: T6, human FcγRIIIa F extracellular domain (human, UniProt P08637 17-208); experiment: SPR; KD of G1d divided by KD of this antibody
T6 construct: extracellular domain; also called hFcγR IIIa F; FcγRIIIa allotype F158
T6 sequence (P08637 17-208): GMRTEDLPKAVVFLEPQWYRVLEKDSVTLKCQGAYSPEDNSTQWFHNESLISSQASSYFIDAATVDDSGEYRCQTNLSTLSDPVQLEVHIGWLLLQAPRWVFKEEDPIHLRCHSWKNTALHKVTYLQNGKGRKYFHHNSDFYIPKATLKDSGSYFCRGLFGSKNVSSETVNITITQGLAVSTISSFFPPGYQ
Experimental: as §1

[6] = molecular target: T1, human FcγRIIa R extracellular domain; experiment: SPR; KD for hFcγRIIb divided by KD for this FcγR
Experimental: as §1

[7] = molecular target: T3, human FcγRIIa H extracellular domain; experiment: SPR; KD for hFcγRIIb divided by KD for this FcγR
Experimental: as §1

[8] = molecular target: T6, human FcγRIIIa F extracellular domain; experiment: SPR; KD for hFcγRIIb divided by KD for this FcγR
Experimental: as §1

[9] = molecular target: hFcγRIIIaV on Jurkat effector cells (human, UniProt P08637 17-254); experiment: cell-based or functional assay
Sequence of hFcγRIIIaV on Jurkat effector cells (P08637 17-254, form in doubt): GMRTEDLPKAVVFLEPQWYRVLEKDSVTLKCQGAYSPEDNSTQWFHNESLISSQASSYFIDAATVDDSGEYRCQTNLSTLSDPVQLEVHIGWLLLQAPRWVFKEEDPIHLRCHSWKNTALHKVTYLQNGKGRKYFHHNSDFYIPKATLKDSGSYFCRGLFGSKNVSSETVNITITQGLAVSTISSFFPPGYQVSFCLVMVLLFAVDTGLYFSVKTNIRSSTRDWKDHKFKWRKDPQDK

[10] = molecular target: T7, human FcγRIIIa V extracellular domain (human, UniProt P08637 17-208); experiment: SPR; KD of G1d divided by KD of this antibody
T7 construct: extracellular domain; also called hFcγR IIIa V; FcγRIIIa allotype V158
T7 sequence (P08637 17-208 F176V): as the sequence (P08637 17-208) above, with F160V counted along it
Experimental: as §1

[11] = molecular target: T7, human FcγRIIIa V extracellular domain; experiment: SPR; KD for hFcγRIIb divided by KD for this FcγR
Experimental: as §1

[12] = molecular target: T4, hFcγRIIaH on Jurkat effector cells; experiment: cell-based or functional assay

| Binder | Relative value to KD between G1d and hFcgRs [1] | Relative value to KD between G1d and hFcgRs [2] | Relative value to KD between G1d and hFcgRs [3] | Relative value to KD between G1d and hFcgRs [4] | Relative value to KD between G1d and hFcgRs [5] | A/I ratio (KD for FcγRIIb divided by KD for each FcγR) [6] | A/I ratio (KD for FcγRIIb divided by KD for each FcγR) [7] | A/I ratio (KD for FcγRIIb divided by KD for each FcγR) [8] | EC50 of reporter gene induction (ADCC Reporter Bioassay, Hepa1-6/hEREG target cells) [9] | Relative value to KD between G1d and hFcgRs [10] | A/I ratio (KD for FcγRIIb divided by KD for each FcγR) [11] | EC50 of reporter gene induction (ADCP Reporter Bioassay, Hepa1-6/hEREG target cells) [12] |
| --- | --- | --- | --- | --- | --- | --- | --- | --- | --- | --- | --- | --- |
| EGL-G1d (H240-G1d/L73-k0) (antibody, human IgG1, kappa, Anti-human Epiregulin antibody with a human IgG1 constant region lacking C-terminal Gly-Lys (G1d); also called Gld; anti-hEREG control antibody) heavy: not shown light: DIQMTQSPSSLSASVGDRVTITCRASQDIHKYIAWYQQKPGQAPRLLIQYTSTLQPGVPSRFSGSGSGTDYTFTISSLQPEDIATYYCLQYEQLRTFGGGTKVEIKRTVAAPSVFIFPPSDEQLKSGTASVVCLLNNFYPREAKVQWKVDNALQSGNSQESVTEQDSKDSTYSLSSTLTLSKADYEKHKVYACEVTHQGLSSPVTKSFNRGEC | 1 times | 1 times | 1 times | 1 times | 1 times | 6.1 ratio | 8.9 ratio | 3.4 ratio | 0.0463 µg/mL |  |  |  |
| EGL-SDALIE (H240-Kn032/L73-k0//H240-H1032/L73-k0) (antibody, human IgG1, kappa, S239D/A330L/I332E in both heavy chains; Kn032 with Y349C/T366W, H1032 with D356C/T366S/L368A/Y407V) heavy 1: QDQLVQSGAEVKKPGASVKVSCKASGFNIKDTYIQWVRQAPGQGLEWMGRIDPLRKQTKYREKFEGRVTITADTSTNTAYMELSSLRSEDTAVYYCVRSGREFDYWGQGTLVTVSSASTKGPSVFPLAPSSKSTSGGTAALGCLVKDYFPEPVTVSWNSGALTSGVHTFPAVLQSSGLYSLSSVVTVPSSSLGTQTYICNVNHKPSNTKVDKKVEPKSCDKTHTCPPCPAPELLGGPDVFLFPPKPKDTLMISRTPEVTCVVVDVSHEDPEVKFNWYVDGVEVHNAKTKPREEQYNSTYRVVSVLTVLHQDWLNGKEYKCKVSNKALPLPEEKTISKAKGQPREPQVCTLPPSRDELTKNQVSLWCLVKGFYPSDIAVEWESNGQPENNYKTTPPVLDSDGSFFLYSKLTVDKSRWQQGNVFSCSVMHEALHNHYTQKSLSLSP heavy 2: QDQLVQSGAEVKKPGASVKVSCKASGFNIKDTYIQWVRQAPGQGLEWMGRIDPLRKQTKYREKFEGRVTITADTSTNTAYMELSSLRSEDTAVYYCVRSGREFDYWGQGTLVTVSSASTKGPSVFPLAPSSKSTSGGTAALGCLVKDYFPEPVTVSWNSGALTSGVHTFPAVLQSSGLYSLSSVVTVPSSSLGTQTYICNVNHKPSNTKVDKKVEPKSCDKTHTCPPCPAPELLGGPDVFLFPPKPKDTLMISRTPEVTCVVVDVSHEDPEVKFNWYVDGVEVHNAKTKPREEQYNSTYRVVSVLTVLHQDWLNGKEYKCKVSNKALPLPEEKTISKAKGQPREPQVYTLPPSRCELTKNQVSLSCAVKGFYPSDIAVEWESNGQPENNYKTTPPVLDSDGSFFLVSKLTVDKSRWQQGNVFSCSVMHEALHNHYTQKSLSLSP light: DIQMTQSPSSLSASVGDRVTITCRASQDIHKYIAWYQQKPGQAPRLLIQYTSTLQPGVPSRFSGSGSGTDYTFTISSLQPEDIATYYCLQYEQLRTFGGGTKVEIKRTVAAPSVFIFPPSDEQLKSGTASVVCLLNNFYPREAKVQWKVDNALQSGNSQESVTEQDSKDSTYSLSSTLTLSKADYEKHKVYACEVTHQGLSSPVTKSFNRGEC | 1.8 times | 3.9 times | 1 times | 54.3 times | 113 times | 2.8 ratio | 2.2 ratio | 98.7 ratio | 0.00178 µg/mL | 36.8 times | 266 ratio |  |
| EGL-GASDALIE (H240-GASDALIE/L73-k0) (antibody, human IgG1, kappa) heavy: QDQLVQSGAEVKKPGASVKVSCKASGFNIKDTYIQWVRQAPGQGLEWMGRIDPLRKQTKYREKFEGRVTITADTSTNTAYMELSSLRSEDTAVYYCVRSGREFDYWGQGTLVTVSSASTKGPSVFPLAPSSKSTSGGTAALGCLVKDYFPEPVTVSWNSGALTSGVHTFPAVLQSSGLYSLSSVVTVPSSSLGTQTYICNVNHKPSNTKVDKKVEPKSCDKTHTCPPCPAPELLAGPDVFLFPPKPKDTLMISRTPEVTCVVVDVSHEDPEVKFNWYVDGVEVHNAKTKPREEQYNSTYRVVSVLTVLHQDWLNGKEYKCKVSNKALPLPEEKTISKAKGQPREPQVYTLPPSRDELTKNQVSLTCLVKGFYPSDIAVEWESNGQPENNYKTTPPVLDSDGSFFLYSKLTVDKSRWQQGNVFSCSVMHEALHNHYTQKSLSLSP light: DIQMTQSPSSLSASVGDRVTITCRASQDIHKYIAWYQQKPGQAPRLLIQYTSTLQPGVPSRFSGSGSGTDYTFTISSLQPEDIATYYCLQYEQLRTFGGGTKVEIKRTVAAPSVFIFPPSDEQLKSGTASVVCLLNNFYPREAKVQWKVDNALQSGNSQESVTEQDSKDSTYSLSSTLTLSKADYEKHKVYACEVTHQGLSSPVTKSFNRGEC | 10.3 times | 3.8 times | 6.9 times | 21.3 times | 99.1 times | 16.5 ratio | 16.5 ratio | 89.3 ratio | 0.00208 µg/mL |  |  | 0.0324 µg/mL |
